Experimental data published in patent US20190153406A1 (PEKING UNIVERSITY, published 2019).
Substitutions are numbered along the chain they refer to. In names and notes the source's numbering stands. Values belong to the binder of their own block, whether it stands above or below them.

Assays:
[1] = target: T1, rat insulin receptor substrate IRS1 (rat, UniProt P35570 1-1235, limits assumed); assay: SPR, purified IRS1 immobilized, purified MG53 in mobile phase
T1 construct: The legend says Rat IRS1; also called Rat IRS1
T1 sequence (looked up): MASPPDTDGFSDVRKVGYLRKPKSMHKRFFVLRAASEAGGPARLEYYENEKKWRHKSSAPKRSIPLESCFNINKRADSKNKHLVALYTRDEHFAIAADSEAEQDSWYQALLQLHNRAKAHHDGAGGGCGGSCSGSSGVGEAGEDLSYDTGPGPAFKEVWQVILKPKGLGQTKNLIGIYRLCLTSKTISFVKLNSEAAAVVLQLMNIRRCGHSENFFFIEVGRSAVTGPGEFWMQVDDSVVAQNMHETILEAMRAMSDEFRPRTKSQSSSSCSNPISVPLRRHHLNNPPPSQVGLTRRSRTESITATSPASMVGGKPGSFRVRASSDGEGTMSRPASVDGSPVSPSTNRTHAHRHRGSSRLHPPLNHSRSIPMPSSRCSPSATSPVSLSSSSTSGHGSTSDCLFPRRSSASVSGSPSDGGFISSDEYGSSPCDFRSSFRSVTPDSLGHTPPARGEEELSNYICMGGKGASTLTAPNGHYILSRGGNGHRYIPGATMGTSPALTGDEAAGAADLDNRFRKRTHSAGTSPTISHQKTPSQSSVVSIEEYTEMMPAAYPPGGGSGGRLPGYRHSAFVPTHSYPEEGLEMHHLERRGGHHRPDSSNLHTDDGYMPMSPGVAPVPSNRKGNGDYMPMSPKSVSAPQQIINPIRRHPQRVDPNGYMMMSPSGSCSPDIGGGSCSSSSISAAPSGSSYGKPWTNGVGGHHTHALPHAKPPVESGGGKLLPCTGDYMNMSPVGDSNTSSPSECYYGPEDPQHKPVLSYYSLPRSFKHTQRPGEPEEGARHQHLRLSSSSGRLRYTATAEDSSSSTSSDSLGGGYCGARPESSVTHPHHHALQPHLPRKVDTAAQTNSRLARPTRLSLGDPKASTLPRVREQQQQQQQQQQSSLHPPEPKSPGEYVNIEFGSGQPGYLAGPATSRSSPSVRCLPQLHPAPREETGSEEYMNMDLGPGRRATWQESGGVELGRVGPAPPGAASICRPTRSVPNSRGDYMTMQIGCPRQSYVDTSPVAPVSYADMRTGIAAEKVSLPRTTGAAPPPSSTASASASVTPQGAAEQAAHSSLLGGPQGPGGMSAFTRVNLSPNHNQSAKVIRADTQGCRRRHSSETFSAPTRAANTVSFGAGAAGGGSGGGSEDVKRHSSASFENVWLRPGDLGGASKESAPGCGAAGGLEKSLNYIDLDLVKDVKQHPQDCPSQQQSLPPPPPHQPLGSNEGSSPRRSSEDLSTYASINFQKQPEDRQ

[2] = target: T1, rat insulin receptor substrate IRS1; assay: SPR, Rat IRS1 immobilized (500 RU), MG53-S255A in the mobile phase [lower panel]

Kd [1]: 64.2 nM
B1: mouse wild-type MG53 (enzyme)
chain: MSAAPGLLRQELSCPLCLQLFDAPVTAECGHSFCRACLIRVAGEPAADGTVACPCCQAPTRPQALSTNLQLSRLVEGLAQVPQGHCEEHLDPLSIYCEQDRTLVCGVCASLGSHRGHRLLPAAEAQARLKTQLPQQKMQLQEACMRKEKTVAVLEHQLVEVEETVRQFRGAVGEQLGKMRMFLAALESSLDREAERVRGDAGVALRRELSSLNSYLEQLRQMEKVLEEVADKPQTEFLMKFCLVTSRLQKILSESPPPARLDIQLPVISDDFKFQVWKKMFRALMPALEELTFDPSSAHPSLVVSSSGRRVECSDQKAPPAGEDTRQFDKAVAVVAQQLLSQGEHYWEVEVGDKPRWALGVMAADASRRGRLHAVPSQGLWLLGLRDGKILEAHVEAKEPRALRTPERPPARIGLYLSFADGVLAFYDASNPDVLTPIFSFHERLPGPVYPIFDVCWHDKGKNAQPLLLVGPEQEQA
notes: Expressed from a plasmid in HEK293T cells for co-IP and degradation assays; purified protein in the mobile phase for SPR; also called TRIM72; Mitsugumin 53

binding result [2]: no binding (tested: 1000 nM)
B2: mouse MG53 S255A mutant (enzyme)
chain: B1 chain with S255A
